Reference: the nanobody polyreactivity screen of Harvey et al. (2022)

Assay: yeast display, Sf9 membrane polyspecificity reagent, FACS + sequencing; frameworks hold sequencing errors
Method in brief: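 Polyreactivity labels are assigned by the sorting gate from which each nanobody was recovered. The gates were low and high (top ~1%), set on anti-HA fluorescence for expression and streptavidin fluorescence for reagent binding. Before sorting, galactose-induced (36–48 hours) yeast display cells were stained for 1 hour at 4 °C with 10% biotinylated, detergent-solubilized Sf9 membrane reagent.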

Sequence | polyreactivity (PSR sort gate)
QDQLVESGGGLVQAGVSLRLICAASGRTFYLYAIGWYRQAPGKERELVAAITWGGATTYYADSVKGRFTISRDNAKNTVYLQMNSLKPEVTAVYYCAAGGYTVWHYQYYAMDYCGQGTQVTVSS | low polyreactivity
QDQLVESGGGLVQAVGSLRLSCAASGFTFYRNAMGWYRQAPGKERELVAAITWSGTSTYFADSVKGRFTISRDNAQNTVYLQLNSLKPEDTAVYYCNARGFQKSDPRGYLILNYWGQGTQVTVSS | high polyreactivity
QDQLVESGGGLVQAVGSLRLSCAASGSTFGLYAMGWYRQAPGKERELVAAITIRGGSTYYADSVKGRFTISRDNAKKTVYLQMNSLKPEDTAVYYCAADYWYGCFEYWGQGTQVTVSS | low polyreactivity
QDQLVESGGGLVQEGGSLRLICAASGRTLQSYAMGGYRQAPGKERELVAAISGGASTYADSVKGRFTISRDNAKNTVYLQMNSLKPEDTAVYYCAADDDPVPTYEYDYWGQGTQVTVSS | low polyreactivity
QDQLVESGGGLVQEGGSLRLSCAASGSTFPYNAMGWYRQAPGKERELVAAITRRAGRTYYADSVKGRFTISRDNAKNTVYLQLNSLKTEDTAVYYCAKSYQRGVYHYVYWGQVTQVTVSS | high polyreactivity
QDQLVESGGGLVQEGGSLRLSCAAYGTIFQIYAMGWYIQAPGKERELVAAINSGGISKYADSVKGRFTISRDNAKNSVYLQMNSLTPADTAVYYCAASVDTGRYSVYYHGYTYDYWGQGTQVTVSS | low polyreactivity
QDQLVESGGGLVQWGRSLGIRCAASGRIFNVKAMGWYRQAPGNEREFDAAISGSVGSTYYADSVKGRFTISRDNAKYSVYLQHNSLKRLDTAVYYCAARYGYDRNRRPGYVYWGQGTQVTVSS | low polyreactivity
QDQLVESGGGVVQAGGSLRLSCAASGSIFAYNAMGWYRQAPGKERELVAAITDSGGSTFYADSVKGRFTISRDNAKNTVYLQMNSLKPEDTAVYYCATSGDRLVWGQGTQVTVSS | low polyreactivity
QDQLVESGRGIFKAGGSLRLSCAASGSIFGDNAMGWSRHAPGKDRELVAAISSGGPTYADSVKGRFTISRDNAKNTVYLQMNSLKAEDSAVYFCNATDGINPYDLTDFEFDYWGQGTEVTVSS | low polyreactivity
QDQLVESGRGLVQAGGNLRLSCAPSRSIFTTYAMGWYRQARGKERHFVATITSSDSTNYADSVKGRFTISRDNAKNTVYLQMNSLNPEETAVYYCNAGGDRTVSVAWYSADDFWGQGTQVTVSS | low polyreactivity
QDQLVESGRGLVQAGGSLRLSCAASGSTFDGKAMGWSRQAPGKERELVATISNSGGRSYYADSVKGRFTISRDNAKNTVYLQMNSLKPEETAVYYCAADHPAFGPGYSFDYWGQGTQVTVSS | low polyreactivity
QDQLVESGVGLVHAGGSLRLSCAATGRIFTYNAMGWYRQAPWKEREVVAAITSSGGSTYYADSVKGRFTISRDNAKNTVYLQMNSLKQEDSAVSYCATVRRGRDYWGQGTQVTVSS | high polyreactivity
QDQLVESGVGLVQAGGSHRLSCAASGSIFGWYARGWYRQAPGKERELGATITTGGSTNYADSVKGRFTISRDNAKNTVYLQMNSLKPEDTAVYYCAAGYNTWYGQYGYWGQGTQVTVSS | low polyreactivity
QDQLVESGVGLVQAGGSLRLSCASSGRIFDPYAMGWYRQAPGKERELVARITWRGGRTYYADSVKVRFTISLDNAKNTVYLQMNSLKPEDTAVFYCNADFYYRYYCAYDYWGQGTQVTVSS | high polyreactivity
QDQLVESRGALVQAGGSLRLSCAASGITFVRNAMGWYRQAPGKERELVAAISSGGSTYYADSVKGRFTISRDNAKNTVYLQMNSLTREDTAVYYCAVLSSWRFSGYDYWGQGSQVTVSS | low polyreactivity
QDQLVESRGGLVQAGGSLRLSCAASGIIFGYYAMGWYRQAPGKERELVAAISRRGGSTYYADSVKGRFTISRDNAKNTVYLQMNSLKPEDTAVYYCAAVELRLSTPDMESWGQGTQVTVSS | high polyreactivity
QDQLVESVGGLVQAGGSLRLSCAASASTFGSNAMGWYRQAPGKDREFVAAISRRGGSTYYADSVKGRFTFSRDNAKNTVYLQMNSLKPEDTAVYYCAADYISLREEHYWGHGTQVTVSS | high polyreactivity
QDQLVESVGGLVQAGGSLRLSCAASGLIFYYYDMGWYRQAPGKERELVAAISSRGSSTYYADSVKGRFTISRVNAKNTVYLQMNSLKPEDTAVYYCAADSVSKYFGYDYWGQGTQVTVSS | high polyreactivity
QDQLVESVGGLVQAGGSLRLSCAASGSIFNRYVMGCYSQAPGKERELVAAMSRRGGNTYYADSVKGRFTISRDNAKNTVYLQMNSLKPEATAVYYCAADYSYYYGYDYWGQGTQVTVSS | high polyreactivity
QDQLVESVGGLVQAGGSLRLSCAASGSTISLYAMGWYRQAPGKERELVAAISQSGSRTYFADSVKGRFTISRDNAKNTVYLQMISLKQEDTAVYYCAAYSPQTYLRWTYGYWGQGTQVTVSS | high polyreactivity
QDQLVQSGGGLVQAGGSLRKSCAASGSTFNPNTMGWNKQAPGKERELVASITWRGGRTYYADSVKGRFTISRDNAKNTVSLQMNSLKPEDTAVFYCASVTFSYDGYDYWGQGTQVTVTS | low polyreactivity
QDQLVQSGGGLVQAGGSLRLSCAASGRTFGKYAMGWYRQAPGKERELVAAITGGGGTKYADSVKGRFTISGDNAKNSVYLQMNSLKPEDTAVYYCAAASGSRRHGYWGQGTQVTVSS | high polyreactivity

Sequence | polyreactivity (PSR sort gate)
QDQLVQSGGGLVQAGGSLRLSCDASGSTLNWYAMGRYRQAPGKERELVAVITSSGVSTYYADSVKGRFTISRDNAKNTVYLQMNSLKPEDTAVYYCNAKWYRWQRGTVKYDYWGQGTQVTVSS | low polyreactivity
QDQRVESGGGLVQAGGSLRLSCAASGRTFKGNARGWYRQAPGKERELVAAISKSGGRTYYADSVKARFTISRDNAKNTVYLQMNSLKPEDTAVYYCAVDEGPTIVRFGYSGQGTQVTVSS | high polyreactivity
QEHLVESGGGLVQAGGSLRLSCAAYGSIFVSYAMGWYRQAPGKERELVAAISWSGGSTYYADSVKGRFTISRDNAKNTVYLQMNSLKPEDTAVYYCNGVPSEGFDWGQGTQVTVSS | low polyreactivity
QEQLQESGGCLVQAGGSLRLSCAASGSIFKVVDMGLYRQSPAKEREFVATIGEGGKTYYADSVKGRFTISRDNEKNTVYLQMNSLKPEDTAVYFYAVVLGTSYRYTYWGEGTQVTVSS | low polyreactivity
QEQLQESGGGLEQPGGSLRLSCAASGSISGSSTMGWYRQAQGKERELVASIAVGANTNYADSAKGRFTISRDNAKNPVYLQMNSLKPEDTAVYYCAVDYYIYYFHYWGQATQVTVSS | high polyreactivity
QEQLQESGGGLVQACGSLRLSCAASGSISGSSTMGWYRQAPGKERELVASIAVGANTNYADSAKGRFTISRDNAKTTVYLQMNSLKPEDSAVYYCAADYWFGYGTYEYWGQGTQVTVSS | high polyreactivity
QEQLQESGGGLVQAGCSLRLSCAANGYIFSVEYMGCYCLAPGKEREFVATINYDTSTYYADSVKGRFTISRDNAKNTVYLQMNSLKPEDTAVYYCAAYFYAYRSPGYWGLGTQVTVSS | high polyreactivity
QEQLQESGGGLVQAGGSLCLSCAASGTIFFDGDMGWYRQAPGKEREFVAAINPGGSAYYADSVKGRLPLAAITHTVYLQMNSLKPEDTAVYYCAAKLFDVYGYYYWGQGTHVTVSS | low polyreactivity
QEQLQESGGGLVQAGGSLRLSCAASGIIFDWFFMGWYRQAPGREREFVAAITYGATTNYADSVKGRFTISRDNGKNTVYLQMNSLKPEDTAVYYCAAVRGRGGTHAYWGQGTQVTVSG | low polyreactivity
QEQLQESGGGQVQAGGSLLLSCAASGNIIRYYYMGWYRQAQGKVRELVAAITYGTSTNYADSVKGRFTISRDNAKNTVYLQMNSLKPEDTAVYYCAVDVNYGDPLDNWGEGTQVTVSS | high polyreactivity
QEQLQESGSGLVQAGGSLRLSCAASGNIFHDWVMGWYRQAPGKERELVAAISPGAITYYADSVKGRFTISRDNAKNTVYLQTNSLKPEDTAVYYCAAYYIVEYLHGYWGQGTRVTVSS | low polyreactivity
QEQLQESGSGLVQAGGSLRLSCAASGNIFQDWVMGWYRQAPGKERELVAAISHGAITYYADSVKGRFTISRDNAKYTVYLQTNSLKREDTAVYYCAAYYIVEYLHGYWGQGTRVTVSS | low polyreactivity
QEQLQESGSGLVQAGGSLRLSCAASGNIFQDWVRGWYRQAPGKERELVAAISPGAITYDADSVKGRFTISRDNAKNTVYLQTNSLNPEDTAVYYCAAYYIVEYLQGYWGQGTRVTVSS | low polyreactivity
QEQLQESGVGLVQAGGSLRLICEASGSISQAWYMGWYRQAPGKERELVAAINVGAITYYADSVKGRFSISRDNAKNTVYLPMNSLTPDDTAVYYCAVDQYSEAYYDYWGQGTQATVSS | high polyreactivity
QEQLQGSGGGLAQAGDSLRLSCAASGTIFSEYNNGLVSPGAGQRTRTCCRYWCWGNTYYADSAKGRFTTIRDNAKNTVYLQKNSLKPEDTAVYYCAFNRPYPSRHIYRGQGTQVTVSS | high polyreactivity
QEQLVESGGGFVQAGGSLRLSCAASGRIFTGYAMGWYRQAPGKERELVAVITWSTGSSTYYADSVKGRFTISRDNAKNTVYLQMNSLNPEDTAVYYFNAAYKIDFTYDTYDYWGQGTQVTVSS | low polyreactivity
QEQLVESGGGLVQAGGSLGLSCAASGLTFSYYAMRWYRQAPGKERELVAAIDYSGGTTYADSVKGRFTISRDNAKNTVYLQMNSLKPEDTAVYYCAAAPDGWFASGDEYWGQGTQVTVSS | high polyreactivity
QEQLVESGRGLVQAGGSLRVSCAASGSIFSVNGMGWYRQAPGKARELVAAIRRSGGSTYYADSVKGRFTISRDHAKNTVNLQRNSLKPEDTAVYYCAAPVRQSSYTRYDAWGQGTQVTVSS | high polyreactivity
QFHLVDSGGGLVQAGCSLRLSCAASGFTFNSYAMGWYRQAPGKERELVASITRGGGSTYYADSVKGRFTISRDNAKNTVYLKMNSLKPEDTAVYYCTARVRRRGGSFNYWGQGTQVIVSS | high polyreactivity
QFHLVESGGGLLQAGGSLRLSCAASGRIFYANDMGWYRQAPGKERELLAAISQSGGSTFYADSVKGRFTISRDNAKNTVYLQMNSLKPEDTAVYYCATDYYGPVYDLDYDYWGQGTQVSVSS | low polyreactivity
QFHLVESGGRLVQAGGSLRLSCAASGRIFYYYVMGWYRQAPGKERELVAVIDWSGGSTYYADSVKGRFTISRDNAKNTVYVQMNSLKPEDTAVYYCAKVWLNFSLAYEDYDYWGQGTQVTVSS | low polyreactivity
